From paper PMC7060837

Target: taxol-stabilized brain microtubules (UniProt P02550)
Chain of UniProt P02550 (P02550 whole entry, looked up): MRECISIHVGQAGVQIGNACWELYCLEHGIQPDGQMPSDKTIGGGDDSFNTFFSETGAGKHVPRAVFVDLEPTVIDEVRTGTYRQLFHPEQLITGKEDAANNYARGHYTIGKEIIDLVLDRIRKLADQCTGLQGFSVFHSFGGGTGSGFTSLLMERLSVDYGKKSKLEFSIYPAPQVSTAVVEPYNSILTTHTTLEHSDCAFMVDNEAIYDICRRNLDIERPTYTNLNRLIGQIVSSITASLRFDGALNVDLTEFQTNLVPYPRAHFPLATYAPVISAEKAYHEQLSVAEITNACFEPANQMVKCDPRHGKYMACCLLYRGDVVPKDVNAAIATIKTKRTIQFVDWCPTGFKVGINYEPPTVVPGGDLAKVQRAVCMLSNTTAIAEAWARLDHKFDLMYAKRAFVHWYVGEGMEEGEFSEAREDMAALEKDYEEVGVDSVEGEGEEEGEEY

B1: katanin MEI-1/MEI-2 mutant K119K120R128R130K134AAAAA (complex)
chain 1: MNGDVQSVIRGYLERAQVAKTMSDAGRWNEAGDLLRQLMTDVKSCKISASNRDEHDARNTFLRALEANLKLVQQNVRDEDDLHEAMTRQSGSPEPPADPDVWSKPSPPLPSSSKFGATAAGVGAAGPAPAEISASTSSMSTNPADVKPANPTQGILPQNSAGDSFDASAYDAYIVQAVRGTMATNTENTMSLDDIIGMHDVKQVLHEAVTLPLLVPEFFQGLRSPWKAMVLAGPPGTGKTLIARAIASESSSTFFTVSSTDLSSKWRGDSEKIVRLLFELARFYAPSIIFIDEIDTLGGQRGNSGEHEASRRVKSEFLVQMDGSQNKFDSRRVFVLAATNIPWELDEALRRRFEKRIFIPLPDIDARKKLIEKSMEGTPKSDEINYDDLAARTEGFSGADVVSLCRTAAINVLRRYDTKSLRGGELTAAMESLKAELVRNIDFEAALQAVSPSAGPDTMLKCKEWCDSFGAM
chain 2: MSGLDDRKKLTHAKNRKPLNDIPKSAENRPNTRSTSSRRGAEKDVPITFIGSSRTVKADLPEFTNTRSRRPLHSESKKELSRNPVSRGEEHSSSLPKSSPESSVSVMSSNASLWSACTEEVNKIGVCAKRESRNLRVYKMKSFTSNMEQILSNDNQLAPTVIRILNSRNSWCLNSCHACLTFIMENITSDNYGKRSACLKALASITNSLLDTIIGFASTKTRRIGVDVVAEERAAKATECIHNFRKIVKNRDKIYKQIDQETIYKLDAILERLKKVSSHK
  microtubule stimulated ATPase, reduction against wild type: 50%
